One data set deals with T1, NPR3 (Arabidopsis thaliana, UniProt Q8L746).
T1 sequence (Q8L746 1-586): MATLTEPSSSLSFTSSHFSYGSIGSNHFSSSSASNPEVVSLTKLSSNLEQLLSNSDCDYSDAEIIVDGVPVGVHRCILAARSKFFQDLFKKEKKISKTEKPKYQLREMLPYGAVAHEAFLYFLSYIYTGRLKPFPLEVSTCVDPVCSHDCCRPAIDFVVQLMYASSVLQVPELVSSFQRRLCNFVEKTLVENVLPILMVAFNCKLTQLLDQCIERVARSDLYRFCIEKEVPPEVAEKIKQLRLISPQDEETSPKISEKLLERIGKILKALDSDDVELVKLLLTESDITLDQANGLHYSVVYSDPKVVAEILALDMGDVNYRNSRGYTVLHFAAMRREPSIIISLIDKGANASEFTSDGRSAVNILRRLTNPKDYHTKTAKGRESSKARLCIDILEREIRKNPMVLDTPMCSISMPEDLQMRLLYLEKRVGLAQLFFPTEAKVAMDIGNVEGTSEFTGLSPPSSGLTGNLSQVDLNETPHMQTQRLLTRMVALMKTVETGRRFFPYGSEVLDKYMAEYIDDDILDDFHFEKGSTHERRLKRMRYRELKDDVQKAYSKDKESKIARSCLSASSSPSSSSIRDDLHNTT
The data set is described as follows: [3H]-SA binding.

The target in another data set is T2, His-MBP-NPR1 (Arabidopsis thaliana, UniProt P93002 1-593).
T2 sequence: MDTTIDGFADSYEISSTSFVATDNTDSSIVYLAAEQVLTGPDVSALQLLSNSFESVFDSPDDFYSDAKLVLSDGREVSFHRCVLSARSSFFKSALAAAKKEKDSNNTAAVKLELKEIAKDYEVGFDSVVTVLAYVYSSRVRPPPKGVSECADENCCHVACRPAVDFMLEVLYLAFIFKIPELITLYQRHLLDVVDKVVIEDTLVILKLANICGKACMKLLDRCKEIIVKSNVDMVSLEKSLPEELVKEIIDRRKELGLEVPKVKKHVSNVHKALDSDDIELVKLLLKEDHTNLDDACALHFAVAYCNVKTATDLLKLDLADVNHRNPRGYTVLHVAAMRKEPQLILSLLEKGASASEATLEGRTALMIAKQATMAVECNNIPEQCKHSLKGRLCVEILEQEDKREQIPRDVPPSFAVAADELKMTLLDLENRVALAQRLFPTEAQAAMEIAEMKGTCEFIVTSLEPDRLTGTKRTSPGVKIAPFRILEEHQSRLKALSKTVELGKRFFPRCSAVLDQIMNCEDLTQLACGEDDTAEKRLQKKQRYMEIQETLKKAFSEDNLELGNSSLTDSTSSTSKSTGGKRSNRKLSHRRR
The data set is described as follows: pull-down.

The data set “SEC” concerns the molecule itself. The data set is described as follows: SEC.

As to `O=C(O)c1ccccc1O` [SA, Salicylic acid], the Kd (commonly the concentration at which binding is half-saturated) on NPR3 came to 981 nM.

B1: GST-NPR4 (natural protein)
chain: MAATAIEPSSSISFTSSHLSNPSPVVTTYHSAANLEELSSNLEQLLTNPDCDYTDAEIIIEEEANPVSVHRCVLAARSKFFLDLFKKDKDSSEKKPKYQMKDLLPYGNVGREAFLHFLSYIYTGRLKPFPIEVSTCVDSVCAHDSCKPAIDFAVELMYASFVFQIPDLVSSFQRKLRNYVEKSLVENVLPILLVAFHCDLTQLLDQCIERVARSDLDRFCIEKELPLEVLEKIKQLRVKSVNIPEVEDKSIERTGKVLKALDSDDVELVKLLLTESDITLDQANGLHYAVAYSDPKVVTQVLDLDMADVNFRNSRGYTVLHIAAMRREPTIIIPLIQKGANASDFTFDGRSAVNICRRLTRPKDYHTKTSRKEPSKYRLCIDILEREIRRNPLVSGDTPTCSHSMPEDLQMRLLYLEKRVGLAQLFFPAEANVAMDVANVEGTSECTGLLTPPPSNDTTENLGKVDLNETPYVQTKRMLTRMKALMKTVETGRRYFPSCYEVLDKYMDQYMDEEIPDMSYPEKGTVKERRQKRMRYNELKNDVKKAYSKDKVARSCLSSSSPASSLREALENPT
Turning to B1, in the data set with His-MBP-NPR1, the binding result is “binds”.

B2: purified recombinant NPR4 protein (natural protein)
chain: B1 chain
As for B2, the stoichiometry N (in general, a count of units in the complex or per binding partner) in the data set “SEC” was ~4.

The values are drawn from publication PMC3376392 (Nature, 2012).
